The results in this text go back to patent US20160228506A1, “Compositions and Formulations for Prevention and Reduction of Tumorigenesis, Cancer Cell Proliferation and Invasion, and Methods of Production and Use Thereof in Cancer Treatment” (PRONUTRIA, INC., priority 2013, published 2016).

A short description of the data set: SGF digest of 168 nutritive polypeptide library, intact protein by LC-MS/MS. It is filed as in vitro ADME. The settings on record: 168 nutritive polypeptide library SGF digest, LC-MS/MS spectral counts. Here is the method: The in vitro intact half-life of multiple polypeptides in a complex mixture was determined using the simulated gastric in vitro digestion described above. Briefly, the 168 nutritive polypeptide library was generated as described herein by cloning, transforming, and expressing a gene library encoding 168 proteins as a single mixture. The recombinantly expressed proteins were purified from host cell proteins by IMAC purification as described herein.
The 168 Protein Library was treated with SGF as described above and the t=0 and t=10 min samples were analyzed for intact protein by LC-MS/MS. To begin, 10 μg of sample was loaded onto a 10% SDS-PAGE gel (Invitrogen) and run approximately 5 cm into the gel. The gel was excised into ten fractions from 100 kD to the dye front and the gel slices were processed by washing with 25 mM ammonium bicarbonate, followed by acetonitrile. Gel fractions were then reduced with 10 mM dithiothreitol at 60° C., followed by alkylation with 50 mM iodoacetamide at room temperature. Finally, the samples were digested with trypsin (Promega) at 37° C. for 4 h and the digestions were quenched with the addition of formic acid. The samples were then analyzed by nano LC/MS/MS using an EasynLC 1000 HPLC system interfaced to a ThermoFisher Q Exactive. Peptides were loaded on a trapping column and eluted over a 75 μm analytical column at 350 nL/min; both columns were packed with PepMap C18 3 μm resin (ThemoFisher). A 1 hour gradient was employed. The mass spectrometer was operated in data-dependent mode, with MS and MS/MS performed in the Orbitrap at 70,000 FWHM resolution and 17,500 FWHM resolution, respectively. The fifteen most abundant ions were selected for MS/MS. Data were searched against an appropriate database using Mascot to identify peptides. Mascot DAT files were parsed into the Scaffold software for validation, filtering and to create a nonredundant list per sample. Data were filtered at 1% protein and peptide false discovery rate (FDR) and requiring at least two unique peptides per protein. A full list of detected proteins and their spectral counts (SpC) was generated and reported as a function of each collected gel fraction. SpC are a count of the number of spectra identified for a given protein and are used as a measure of relative protein abundance (Liu, H. et al., Analytical Chemistry 2004, 76: 4193-4201). To calculate the percentage of intact protein remaining at the 10 min time point of the SGF digest the number of SpC representative of intact peptide in the t=10 min sample were divided by the number of SpC representative of intact peptide in the t=0 min sample. The number of SpC representative of intact peptide was defined as the sum of the SpC in the fraction with the highest number of SpC assigned to that protein in the t=0 min sample and the two flanking fractions.

B1: SEQID-00509: protein of the 168 nutritive polypeptide library (protein, listed as Gadus morhua)
chain: MSDTEDVDQVEDEKPKFKPSAPKIPDGEKVDFDDIQKKRQNKDLSELQGLIDAHFEGRKKEEEELIALKERIEKRRAERAEQQRIRSEKDKERQARREEERLKREEADAKKKMEEDAKKKSALSNMGSNYSSHLQKADQKRGGGKKETEREKKKKILAARRKGLNIDHLNEDKLKDKINELHEWMSTLESEKFDHMERLNRQKYEVTTLRKRVEELSKFSKKGKTVRRK
For the molecule B1, the “% Intact Protein at 10 min” value was found to be 36.4%.

B2: SEQID-00533: protein of the 168 nutritive polypeptide library (protein)
chain: MVTEFQTRDLADVIRRPIVTEKATIQMELNQFTFDVDPRADKPTIKAAVELLFPVKVLSVNTQNPPRRQRRVGRFVGYKPRYKRAIVTLEDGEALRKVLFPEV
modifications: Arthrospira platensis NIES-39
notes: protein of the 168 nutritive polypeptide library
As for B2, the “% Intact Protein at 10 min” value was determined as 19%.

B3: SEQID-00528: protein of the 168 nutritive polypeptide library (protein, listed as Saccharomyces cerevisiae)
chain: MVLVQDLLHPTAASEARKHKLKTLVQGPRSYFLDVKCPGCLNITTVFSHAQTAVTCESCSTVLCTPTGGKAKLSEGTSFRRK
modifications: source: /note="strain ATCC 204508 / S288c"
notes: as for B2
On to B3, for which the “% Intact Protein at 10 min” value amounted to 11.8%.

B4: SEQID-00515: protein of the 168 nutritive polypeptide library (protein, listed as Saccharomyces cerevisiae)
chain: MSNLLNKFADKLHGNDHDERYEDDNDDQTRQQRHEKHQQREFRNQGSKADPYGEENQGNFPQRQQPQSNLGGNTQFGGNDFQQQTTDYTAGTGGGTYTQTYRETNTQGQLDDDEDDDFLTSGQQQKQGRTRGAQSNRYQSSNIGSGRRDLSGSGNDEYDDDSGNQGVW
modifications: source: /note="strain ATCC 204508 / S288c"
notes: as for B2
In the case of B4, the “% Intact Protein at 10 min” value is listed as 17%.

B5: SEQID-00507: protein of the 168 nutritive polypeptide library (protein, listed as Agaricus bisporus)
chain: MISFYDLTAKPPFKTVSVNSWKIRYALNFKNLPYKTLYFEFPDMAKEFSKVGIPPSSVSADGPSYTVPSLIDDSTNTRISESFTIALYLDKQYPDAPKLFPAGTEALQAAFHEEFYKVMSPTFPFFFPKAGNVLNKPSDDYFAVTRAKMFGMSMADFEPKGEARVEAWKKVKDAFDTLESWMSKTSGPFFMGETVSFADFVIGGLLNEFSMCMGENSPEWQDVLKWNNGRWATLKKKLEVYANTDQ
modifications: source: /note="var. bisporus"; source: /note="strain H97 / ATCC MYA-4626 / FGSC 10389"
notes: as for B2
In the case of B5, the “% Intact Protein at 10 min” value is reported as 0%.

B6: SEQID-00520: protein of the 168 nutritive polypeptide library (protein, listed as Gallus gallus)
chain: MSDEEKKRRAATARRQHLKSAMLQLAVTEIEKEAAAKEVEKQNYLAEHCPPLSLPGSMQELQELCKKLHAKIDSVDEERYDTEVKLQKTNKELEDLSQKLFDLRGKFKRPPLRRVRMSADAMLRALLGSKHKVNMDLRANLKQVKKEDTEKEKDLRDVGDWRKNIEEKSGMEGRKKMFEAGES
For B6, the “% Intact Protein at 10 min” value worked out at 0%.

B7: SEQID-00518: protein of the 168 nutritive polypeptide library (protein, listed as Lactobacillus acidophilus)
chain: MTKGILGRKVGMTQIFTKDGVLVPVTVVEATPNVVMQVKTVESDGYEAVQLGYQDKREVLSNKPEKGHADKAKTSPKRFIREIRGVELKDYEVGSEVTVDTFKEGDVVNVTGTSRGHGYQGNIKRWGQSRGPETHGSRYHRIPGSMGSIINRVPKGKRLPGHMGVKKVTIENLVIEKVVADKNVLMIKGNVPGAKNSLIVVKTASKAVKADK
modifications: source: /note="strain 30SC"
notes: as for B2
In the case of B7, the “% Intact Protein at 10 min” value was found to be 0%.

B8: SEQID-00521: protein of the 168 nutritive polypeptide library (protein, listed as Arthrospira platensis)
chain: MQDAITSVINSSDVQGKYLDASAIQKLKAYFATGELRVRAATTISANAANIVKEAVAKSLLYSDITRPGGNMYTTRRYAACIRDLDYYLRYATYAMLAGDPSILDERVLNGLKETYNSLGVPIGATVQAIQAMKEVTAGLVGADAGKEMGIYFDYICSGLS
For the molecule B8, the “% Intact Protein at 10 min” value was 11.5%.

B9: SEQID-00497: protein of the 168 nutritive polypeptide library (protein, listed as Saccharomyces cerevisiae)
chain: MSIASYAQELKLALHQYPNFPSEGILFEDFLPIFRNPGLFQKLIDAFKLHLEEAFPEVKIDYIVGLESRGFLFGPTLALALGVGFVPVRKAGKLPGECFKATYEKEYGSDLFEIQKNAIPAGSNVIIVDDIIATGGSAAAAGELVEQLEANLLEYNFVMELDFLKGRSKLNAPVFTLLNAQKEALKK
modifications: source: /note="strain ATCC 204508 / S288c"
notes: as for B2
In the case of B9, the “% Intact Protein at 10 min” value worked out at 20.3%.

B10: SEQID-00484: protein of the 168 nutritive polypeptide library (protein, listed as Saccharomyces cerevisiae)
chain: MSEKFPPLEDQNIDFTPNDKKDDDTDFLKREAEILGDEFKTEQDDILETEASPAKDDDEIRDFEEQFPDINSANGAVSSDQNGSATVSSGNDNGEADDDFSTFEGANQSTESVKEDRSEVVDQWKQRRAVEIHEKDLKDEELKKELQDEAIKHIDDFYDSYNKKKEQQLEDAAKEAEAFLKKRDEFFGQDNTTWDRALQLINQDDADIIGGRDRSKLKEILLRLKGNAKAPGA
modifications: source: /note="strain ATCC 204508 / S288c"
notes: as for B2
On to B10, for which the “% Intact Protein at 10 min” value is on record as 0%.

B11: SEQID-00524: protein of the 168 nutritive polypeptide library (protein)
chain: MPAWYSIDSRVRGTSLVVKGLKENVEYHFRVSAENQFGISKPMKSEEPVIPKTPLSKASSNHNTVNFLS
modifications: Ovis aries
notes: as for B2
Consider B11, for which the “% Intact Protein at 10 min” value is listed as 0%.

B12: SEQID-00532: protein of the 168 nutritive polypeptide library (protein)
chain: MSIAVGMIETIGFPAVVEAADSMVKAARVTLVGYEKIGSGRVTVIVRGDVSEVQASVSAGIESVKRVNGGEVSSTHIIARPHENLEYVLPIRYTDAVEQFRSY
modifications: Arthrospira platensis NIES-39
notes: as for B2
As for B12, the “% Intact Protein at 10 min” value amounted to 0%.

B13: SEQID-00525: protein of the 168 nutritive polypeptide library (protein, listed as Saccharomyces cerevisiae)
chain: MTKNFIVTLKKNTPDVEAKKFLDSVHHAGGSIVHEFDIIKGYTIKVPDVLHLNKLKEKHNDVIENVEEDKEVHT
modifications: source: /note="strain ATCC 204508 / S288c"
notes: as for B2
With B13, the “% Intact Protein at 10 min” value is 13.7%.

B14: SEQID-00495: protein of the 168 nutritive polypeptide library (protein, listed as Vitis vinifera)
chain: MEKNVESDPNPPLASGPEFPPATTPADVKNDVALEKSVVPPPEVKADESKALAVVEKTPDSAAKKTSGGSFERDVALANLEKEKQLSFIRAWEESEKSKVDNKAQKKLSDVCAWENSKKAAVEANLKKIEEELEKKKAEYAEKMKNKVALIHKQAEEKKAMIEARRGEEFLKAEEMAAKFRATGQTPKKVLGCFGG
In the case of B14, the “% Intact Protein at 10 min” value stood at 0%.

B15: SEQID-00489: protein of the 168 nutritive polypeptide library (protein, listed as Saccharomyces cerevisiae)
chain: MSVEEVSKKFEENVSVDDTTATPKTVLSDSAHFDVKHPLNTKWTLWYTKPAVDKSESWSDLLRPVTSFQTVEEFWAIIQNIPEPHELPLKSDYHVFRNDVRPEWEDEANAKGGKWSFQLRGKGADIDELWLRTLLAVIGETIDEDDSQINGVVLSIRKGGNKFALWTKSEDKEPLLRIGGKFKQVLKLTDDGHLEFFPHSSANGRHPQPSITL
modifications: source: /note="strain ATCC 204508 / S288c"
notes: as for B2
With B15, the “% Intact Protein at 10 min” value amounted to 0%.

B16: SEQID-00529: protein of the 168 nutritive polypeptide library (protein)
chain: MLGYISAGKMGSSPSGARFFKYEVVGMRQNDETDKTEYQIRSSGSQFVIVPYNRMNQEMRRINRMGGKIVSIEPMTTDNTVSEAEGE
modifications: Arthrospira platensis Sp-1
notes: as for B2
B16: the “% Intact Protein at 10 min” value was 0%.
